From paper PMC3029386

Experiments:
[1] = target: DevR (full-length) (Mycobacterium tuberculosis) (UniProt P9WMF9); assay: DNase I footprinting
[2] = target: DevRC (DevR C-terminal domain) (Mycobacterium tuberculosis H37Rv) (UniProt P9WMF9); assay: DNase I footprinting
Sequence of DevRC (DevR C-terminal domain) (Mycobacterium tuberculosis H37Rv) (P9WMF9 141-217): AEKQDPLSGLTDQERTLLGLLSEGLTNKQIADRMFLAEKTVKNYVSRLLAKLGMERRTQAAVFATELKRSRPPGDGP

Sequence of DevR (full-length) (Mycobacterium tuberculosis) (P9WMF9 whole entry, the tested form may be a part): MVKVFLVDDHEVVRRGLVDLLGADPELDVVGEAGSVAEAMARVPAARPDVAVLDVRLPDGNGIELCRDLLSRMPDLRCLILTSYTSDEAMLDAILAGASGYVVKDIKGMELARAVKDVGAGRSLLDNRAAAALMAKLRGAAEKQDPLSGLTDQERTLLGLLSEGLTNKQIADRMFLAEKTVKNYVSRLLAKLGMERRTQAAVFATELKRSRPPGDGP

**Q.** With “TGGCTGCCGGGCCTTTCCCATCAACGGCTGCGGTCATCTATTAAGGATCGCGCGTCGACAGCCGCGGTGGCAGAGCACGAAGGCTCGCCAGCGGAGGACCTTTGGCCCTGCCTCAACGGCTCCTCGCAGCGGAGAGTGGTACTGACGGTTGCAGATAATCCGGATCACCGGGGAAGGCGCTGACCATG (double strand) [tgs1-Rv3131 intergenic DNA (3130F/3131R)]” as the sequence, how does the binding [1] read?
**A.** binds

**Q.** And the binding [2]?
**A.** binds
